In publication PMC4589357, “The Role of Electrostatic Interactions in Binding of Histone H3K4me2/3 to the Sgf29 Tandem Tudor Domain” (PLoS ONE, 2015):
No end group written: not given here. Me3 = trimethyl (on lysine, trimethyllysine)

Assays:
Assay in all cases: ITC; peptide (generally 1.2 mM) titrated to protein (100 uM); for variants of low affinity 2.4 mM peptide to 200 uM protein; 25 mM TRIS pH 8.0, 50 mM NaCl, 1 mM DTT; one-site model
Conditions in all cases: both partners purified
[1] = target: T1, Sgf29 D266E variant, residues 115-293 (human, UniProt Q96ES7 115-293, D266E)
T1 construct: source: E. coli Rosetta BL21 DE3 PlysS, purified (Ni-NTA, TEV cleavage, SEC Superdex 75)
T1 sequence (looked up): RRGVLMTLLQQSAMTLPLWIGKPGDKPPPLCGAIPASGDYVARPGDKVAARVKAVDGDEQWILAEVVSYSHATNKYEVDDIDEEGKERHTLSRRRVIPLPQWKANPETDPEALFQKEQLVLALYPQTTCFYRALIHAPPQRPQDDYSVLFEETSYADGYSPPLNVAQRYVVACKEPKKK

[2] = target: T2, Wild-type Sgf29 (SAGA-associated Factor 29) tandem tudor domain, residues 115-293 (human, UniProt Q96ES7 115-293)
T2 construct: also called WT Sgf29; WT; source: E. coli Rosetta BL21 DE3 PlysS, purified (Ni-NTA, TEV cleavage, SEC Superdex 75)
T2 sequence (looked up): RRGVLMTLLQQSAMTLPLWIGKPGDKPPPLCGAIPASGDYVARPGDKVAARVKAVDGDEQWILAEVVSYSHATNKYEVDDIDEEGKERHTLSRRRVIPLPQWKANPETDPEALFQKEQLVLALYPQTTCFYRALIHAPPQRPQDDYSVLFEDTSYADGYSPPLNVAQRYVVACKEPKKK

[3] = target: T3, Sgf29 Y245F variant, residues 115-293 (human, UniProt Q96ES7 115-293, Y245F)
T3 construct: source: E. coli Rosetta BL21 DE3 PlysS, purified (Ni-NTA, TEV cleavage, SEC Superdex 75)
T3 sequence (looked up): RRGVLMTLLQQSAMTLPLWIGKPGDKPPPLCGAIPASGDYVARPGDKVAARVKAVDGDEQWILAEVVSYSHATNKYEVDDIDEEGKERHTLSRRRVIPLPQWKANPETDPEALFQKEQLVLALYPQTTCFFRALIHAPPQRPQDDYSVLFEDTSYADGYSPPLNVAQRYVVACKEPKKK

[4] = target: T4, Sgf29 D266Y variant, residues 115-293 (human, UniProt Q96ES7 115-293, D266Y)
T4 construct: source: E. coli Rosetta BL21 DE3 PlysS, purified (Ni-NTA, TEV cleavage, SEC Superdex 75)
T4 sequence (looked up): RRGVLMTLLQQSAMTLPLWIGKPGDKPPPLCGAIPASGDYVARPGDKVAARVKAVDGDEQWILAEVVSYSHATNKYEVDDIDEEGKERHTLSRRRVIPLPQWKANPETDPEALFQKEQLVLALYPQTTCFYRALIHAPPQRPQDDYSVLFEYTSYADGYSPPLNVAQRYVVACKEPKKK

[5] = target: T5, Sgf29 D266N variant, residues 115-293 (human, UniProt Q96ES7 115-293, D266N)
T5 construct: source: E. coli Rosetta BL21 DE3 PlysS, purified (Ni-NTA, TEV cleavage, SEC Superdex 75)
T5 sequence (looked up): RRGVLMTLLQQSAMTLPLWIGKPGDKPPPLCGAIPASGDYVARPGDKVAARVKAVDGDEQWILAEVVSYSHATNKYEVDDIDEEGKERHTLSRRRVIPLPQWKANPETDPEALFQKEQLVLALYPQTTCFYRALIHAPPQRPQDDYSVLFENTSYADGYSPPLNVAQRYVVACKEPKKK

[6] = target: T6, Sgf29 D266F variant, residues 115-293 (human, UniProt Q96ES7 115-293, D266F)
T6 construct: source: E. coli Rosetta BL21 DE3 PlysS, purified (Ni-NTA, TEV cleavage, SEC Superdex 75)
T6 sequence (looked up): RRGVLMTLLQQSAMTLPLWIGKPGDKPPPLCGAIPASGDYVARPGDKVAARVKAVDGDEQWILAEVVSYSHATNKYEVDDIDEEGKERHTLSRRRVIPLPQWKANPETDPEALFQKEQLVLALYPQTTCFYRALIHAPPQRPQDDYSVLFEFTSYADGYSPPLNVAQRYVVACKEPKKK

[7] = target: T7, Sgf29 D266W variant, residues 115-293 (human, UniProt Q96ES7 115-293, D266W)
T7 construct: source: E. coli Rosetta BL21 DE3 PlysS, purified (Ni-NTA, TEV cleavage, SEC Superdex 75)
T7 sequence (looked up): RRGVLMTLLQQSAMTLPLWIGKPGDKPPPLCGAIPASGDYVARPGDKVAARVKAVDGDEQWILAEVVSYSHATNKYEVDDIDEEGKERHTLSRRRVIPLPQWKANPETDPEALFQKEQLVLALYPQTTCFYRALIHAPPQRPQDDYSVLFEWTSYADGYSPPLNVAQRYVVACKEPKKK

[8] = target: T8, Sgf29 D266A variant, residues 115-293 (human, UniProt Q96ES7 115-293, D266A)
T8 construct: source: E. coli Rosetta BL21 DE3 PlysS, purified (Ni-NTA, TEV cleavage, SEC Superdex 75)
T8 sequence (looked up): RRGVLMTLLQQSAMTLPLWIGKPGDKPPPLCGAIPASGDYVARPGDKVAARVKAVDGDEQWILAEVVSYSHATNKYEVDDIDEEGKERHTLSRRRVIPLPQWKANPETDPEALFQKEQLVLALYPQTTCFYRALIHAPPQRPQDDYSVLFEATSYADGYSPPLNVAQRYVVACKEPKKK

[9] = target: T9, Sgf29 Y238F variant, residues 115-293 (human, UniProt Q96ES7 115-293, Y238F)
T9 construct: source: E. coli Rosetta BL21 DE3 PlysS, purified (Ni-NTA, TEV cleavage, SEC Superdex 75)
T9 sequence (looked up): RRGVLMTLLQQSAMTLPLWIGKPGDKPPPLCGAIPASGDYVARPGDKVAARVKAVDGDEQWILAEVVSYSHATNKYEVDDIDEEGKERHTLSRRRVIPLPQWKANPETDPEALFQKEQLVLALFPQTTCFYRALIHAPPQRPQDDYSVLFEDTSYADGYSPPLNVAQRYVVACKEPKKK

Kd [1]: 3.9 µM
dH [1]: -9 kcal/mol
Kd [2]: 3.1 µM
dH [2]: -8.1 kcal/mol
Kd [3]: 14 µM
dH [3]: -5.9 kcal/mol
Kd [4]: 28 µM
dH [4]: -4.8 kcal/mol
Kd [5]: 25 µM
dH [5]: -6.2 kcal/mol
Kd [6]: 44 µM
dH [6]: -3.4 kcal/mol
Kd [7]: > 200 µM
Kd [8]: 25 µM
dH [8]: -6.4 kcal/mol
Kd [9]: 3.5 µM
dH [9]: -8.1 kcal/mol
B1: 10-mer histone 3 peptide H3K4me3 (ARTKme3QTARKS) (peptide)
peptide: ARTK(Me3)QTARKS-OH
notes: histone H3 N-terminal tail, 10-mer, K4 trimethylated; also called native 10-mer peptide; source: synthetic peptide (manual Fmoc solid-phase synthesis, preparative HPLC)
